Measured values from US20180334496A1 (KODIAK SCIENCES, published 2018).
Substitutions are numbered along the chain they refer to.

B1: KCD014 (antibody, V domains shown)
VH: EVKLVESGGGLVQPGGSLKLSCAASGFTFSSYIMSWVRQTPEKRLEWVAYITNGGGNTYYPDTIKGRFTISRDNAKNTLYLQMSSLKSEDTAMYYCARHGTGYAMDYWGQGTSVTVSS
VL: EIVLTQSPTTMAASPGEKITITCSASSSISSNYLHWYQQKPGFSPKLLIYRTSNLASGVPARFSGSGSGTSYSLTIGTMEAEDVATYYCQQGSSIPLTFGAGTKLELK
B2: KCD011 (antibody, V domains shown)
VH: EVKLVESGGGLVQPGGSLKLSCAASGFTFSSNTMSWVRQTPEKRLEWVAYITNGGGSTYYPDTVKGRFTISRDNARNTLYLQMSSLKSEDTAMYYCARHDYYTMDYWGQGTSVTVSS
VL: DIQMTQSPSSLSASLGGKVTITCKASQDINKYIAWYQHKPGKGPRLLIHYTSTLQPGIPSRFSGSGSGRDYSFSISNLEPEDIATYYCLQYDNLLYTFGGGTKLEIK
B3: KCD056 (antibody, V domains shown)
VH: B2 VH with L20V, S31T, N32Y, V64E, R76K, A97V, T103A
VL: B2 VL with K103T
B4: KCD063 (antibody, V domains shown)
VH: B1 VH with T28I, N57S, I64V, F68L, A97V, G100A, T101H, G102Y
VL: B2 VL with A34T
B5: KCD057 (antibody, V domains shown)
VH: EVKLVESGGGLVQPGGSLKLSCAASGFTFSNYIMSWVRQTPEKRLEWVAYITNGGGATYYPDTVKGQFTISRDNAKNTLYLQMSSLKSEDTAIYYCARHDFYALDFWGQGTSVTVSS
VL: B2 VL with Q90K
B6: KCD058 (antibody, V domains shown)
VH: B5 VH with G10D, N31R, Q39L, Y50F, A57N, Y60H, Q67R, K76N, F101Y, F106Y
VL: B2 VL
B7: KCD066 (antibody, V domains shown)
VH: QVQLQQSAAELARPGASVKMSCKASGYTFTDYTMHWVKQRPGQGLEWIGYINPSGGYTDYNQKFKDKTALTADKSSSTAYMQLSSLTSEDSAVYYCARRRDYWFAYWGQGTLVTVSA
VL: DIVMSQSPSSLAVSVGEKVTMSCKSSQSLLYSGNQKNYLAWYQQKPGQSPKLLIYWASTRESGVPDRFTGSGSGTDFTLTISSVKAEDLAVYYCHQYYSYLTFGAGTKLELK
B8: KCD114 (antibody, V domains shown)
VH: EVQLQQSGPELVKPGASVKISCKASGYSFTAYYMNWVKQSPEKSLEWIGDINPSTGGTTYNQNFKAKATLTVDKSSSTAYMHLKSLTSEDSAVYYCATTYYSGNSYVGFAYWGQGTLVTVSA
VL: DIVMTQSHKFMSTSVGDRVSITCKASQDVSTAVAWYQQKPGQSPKLLIFWASTRHTGVPDRFTGSGSGTDYTLTISSVQAEDLALYYCQQHYSTPWTFGGGTKLEIK
B9: KCD019 (antibody, V domains shown)
VH: QVQLQQSGAELARPGASVKMSCKASGYTFATYTIHWVKQRPGQGLEWIGYLNLRNDYTHYNQKFRDKAALTADKSSSTAYMQLSSLTSEDSAVYNCAFRLGNDRQGWYFDVWGAGTTVTVSS
VL: DIVMTQAHRFMSTSVGDRVIISCKASQDVGTAVAWYQQTPGQSPKILIYWTSTRHTGVPDRFTGSRSGTDFTLTISNVQSEDLADYFCQQYTTYPLTFGGGTKLEIK
B10: KCD077 (antibody, V domains shown)
VH: EVQLQQSGAELVRPGALVKLSCKASGFNIKDYYMHWVKQRPEQGLEWIGWIDPENGHTIYDPRFQGKATITADTSSNTAYLQLSSLTSEDTAVYYCSRGLLGFAYWGQGTLVTVSA
VL: DIVMTQSQKFMSTSVGDRVSVTCKASQNVGTNVAWYQQKPGQSPKALIYTASYRYSGVPDRFTGSGSGTDFTLTISNVQSEDLAEYFCQQYNSYPHMYTFGGGTKLEIK
B11: KCD004 (antibody, V domains shown)
VH: EVQLQQSGAELVRPGSSVKMSCKTSGKTFTSHGINWVKQRPGQGLEWIGYIYIGNGYNEYNEKFKGKATLTSDTSSSTAYMQLSSLTFEDSAIYFCVRKAYGNYGFDDWGQGTTLTVSS
VL: DIQMTQSPTSLSASLGESVSLTCRASQEISGYLNWLQQKPDGSIKRLIYAASTLDSGVPKRFSGSRSGSDYSLTISSLESEDFADYYCLQYANYPFTFGSGTKLEVK
notes: also called OG2063
B12: KCD125 (antibody, V domains shown)
VH: B11 VH with K27N, H32Y, N55T, N58T, F88S, D108Y
VL: B11 VL with T9S, S18R, N34S, S43T, N93S, V106I
B13: KCD205 (antibody, V domains shown)
VH: B11 VH with K27N, F88S
VL: B11 VL with T9S, S18R, N34S, S43T, R66S, E81D, N93S, V106I
B14: KCD126 (antibody, V domains shown)
VH: B11 VH
VL: B11 VL with Y32N
B15: KCD133 (antibody, V domains shown)
VH: EVQLVESGGGLLQPKGSLKLSCAASGFTFNTYAMNWVRQAPGKGLEWVARIRSKSSNYATYYADSVKDRFTISRDDSQSMFYLEMNNLKTEDTAMYYCVRDRGYYYVMDYWGQGTSVTVSS
VL: DIVLTQSPASLAVSLGQRATISCRASESVEYYGTSLMQWYQQKPGQPPKLLINAASNVESGVPARFSGSGSGTDFSLNIHPVEEDDIAMYFCQQSRKVPWTFGGGTKLEIK
B16: KCD030 (antibody, V domains shown)
VH: QVQLQQSGAELAKPGASVKMSCKASGYTFTNYWMHWVKQRPGQGLEWIGYINPSIGYTEYNQKFKDKATLTADKSSSTAYMQLSSLTSEDSAVFYCATFIYYAMDYWGQGTSVTVSS
VL: DIQMNQSPSSLSASLGDTITITCHASQNINVWLSWYQQKPGNIPKLLIYKASNLHTGVPSRFSGSGSGTGFTLTISSLQPEDIATYYCQQGQSYPYTFGGGTKLEIK
B17: KCD131 (antibody, V domains shown)
VH: QVQLQQSGPELVKPGASVKISCKASAYTFTDYYINWVKQRPGQGPEWIGWIFPGSNSTYSNEKFEVKATLTVDESSSTAYMLLSSLTSEDSAVYFCARLGYFGSSYHALDYWGQGTSVTVSS
VL: DIQMTQSPASLSVSVGETVTITCRASENIYSHLAWFQQKQGKSPRLLVYSATNLPDGVPSRFSGSGSGTQYSLKINILQSEDFGSYYCQHFWGTPWTFGGGTKLEIK
B18: KCD219 (antibody, V domains shown)
VH: QVQLQQSGPELVKPGASVKISCKASGYTFTDYYINWVKQRPGQGLEWIGWIFPGSGSTYYNEKFKGKATLTVDKSSSTAYMLLSSLPSEDSAVYFCARYGYYGSSFYAMDYWGQGTSVTVSS
VL: B17 VL with H32N, F36Y, R45Q, S50A, P55A, I77S, T94S, W96P
B19: KCD136 (antibody, V domains shown)
VH: EVQLQQSVAELVRPGASVKLSCSASGFNIKNTYMHWVNQRPEQGLEWIGRIDPANGITKYAPNFQGKATITADTSSNTAYLQLSNLTSEDTAIYYCTRAMDYWGQGTSVTVSS
VL: QIVLTQSPAIMSASPGEKVTMTCSASSSVSYMYWYQQKPGSSPRLLIYDISNLASGVPVRFSGSGSGTSYSLTISRMEAEDAATYYCQQWDTYPWTFGGGTKLEIK
B20: KCD212 (antibody, V domains shown)
VH: EVHLVESGGDLVKPGGSLKLSCAASGFTFSRYGMSWVRQTPDKRLEWVATISSAGSYTYYPDSVKGRFTISRDNAKNTLFLQMSSLKSEDTAMYYCARPLNYYGTSSFDYWGQGTTLTVSS
VL: QIVLTQSPAIMSASPGEKVTMTCRASSSVSSTYLHWYQQKPGSSPKLWIYSTSNLASGVPPRFSGSGSGTSYSLTISSVEAEDAATYYCQQYDSSPNTFGAGTKLELK
B21: KCD225 (antibody, V domains shown)
VH: B18 VH with V37M, G56D, P87T, Y99L, G103S, S104H, F106Y
VL: DIQMTQSPASLSVSTGETVTITCRASENIYSNLAWFQQKQGKSPQLLVYAATNLADGVPSRFSGSGSGTQYSLKITSLQSEDFGSYYCQHFWGTPLTFGAGTKLDLK
B22: KCD110 (antibody, V domains shown)
VH: EVQLQQSGPELVKPGASVKISCKASGYSFTGYYMHWVKQSHGNILDWIGYIDPDNGVSSKNQKFTGKATVTADKSSSTAYMELRSLTSEDSAVYYCAGYYGSSWYWYFDVWGTGTTVTVSS
VL: QIVLSQSPAILSASPGEKVTMTCRASSSVSYMHWYQQKPGSSPKPWIYATSNLASGVPARFSGSGSGTSYSLTISRVEAEDAATYYCQQWSSNPYTFGGGTKLEIK

Biological target: T1, human complement factor D purified from serum (human, UniProt P00746 26-253)
T1 construct: serum-purified (CompTech); also called hCFD-Comptech; CFD
Assay: SPR MX96

T1 sequence (P00746 26-253): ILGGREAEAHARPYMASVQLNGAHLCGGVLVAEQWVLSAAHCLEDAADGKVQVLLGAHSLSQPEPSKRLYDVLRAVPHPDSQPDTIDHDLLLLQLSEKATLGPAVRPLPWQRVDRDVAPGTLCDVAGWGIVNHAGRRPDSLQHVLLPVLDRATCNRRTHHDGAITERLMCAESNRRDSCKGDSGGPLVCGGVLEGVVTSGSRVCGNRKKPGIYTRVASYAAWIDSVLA

Row | Kd [nM] | Binder
1 | 22 | B1
2 | 77 | B2
3 | 60 | B3
4 | 33 | B4
5 | 2.7 | B5
6 | 9.9 | B6
7 | 2.9 | B7
8 | 8.1 | B8
9 | 7.2 | B9
10 | 17 | B10
11 | 0.35 | B11
12 | 3.8 | B12
13 | 3 | B13
14 | 0.34 | B14
15 | 12 | B15
16 | 4.2 | B16

Biological target: T2, recombinant cynomolgus CFD, His-tagged (cynomolgus)
T2 construct: also called rcyCFD-His; recombinant Cyno-CFD
Assay: SPR MX96

Row | Kd [nM] | Binder
17 | 38 | B2
18 | 31 | B3
19 | 24 | B4
20 | 3.1 | B5
21 | 11 | B6
22 | 4 | B7
23 | 8.4 | B8
24 | 47 | B9
25 | 14 | B10
26 | 0.92 | B11
27 | 4.1 | B12
28 | 3.3 | B13
29 | 0.93 | B14
30 | 84 | B15

Biological target: T3, recombinant human CFD, His-tagged (human, UniProt P00746 26-253)
T3 construct: also called rhCFD-His
Assay: SPR MX96

T3 sequence (P00746 26-253 limits assumed): as the sequence (P00746 26-253) above

Row | Kd [nM] | Binder
31 | 20 | B1
32 | 59 | B2
33 | 52 | B3
34 | 2.7 | B5
35 | 9.4 | B6
36 | 1.9 | B7
37 | 3.8 | B8
38 | 61 | B9
39 | 0.24 | B11
40 | 2.5 | B12
41 | 1.9 | B13
42 | 0.29 | B14
43 | 14 | B15
44 | 3.8 | B16

Biological target: T4, recombinant human CFD mutant 1 (R157A, R207A), His-tagged (human, UniProt P00746 26-253)
T4 construct: positions are linear positions in the mature protein; also called rhCFD-mut1-His; Mut1
Assay: SPR MX96

T4 sequence (P00746 26-253 R182A/R232A limits assumed): as the sequence (P00746 26-253) above, with R157A, R207A counted along it

Row | Kd [nM] | Binder
45 | 110 | B2
46 | 84 | B3
47 | 2.5 | B5
48 | 7.6 | B6
49 | 1.2 | B7
50 | 8.4 | B8
51 | 180 | B9
52 | 13 | B10
53 | 0.14 | B11
54 | 2.7 | B12
55 | 1.8 | B13
56 | 0.18 | B14
57 | 1.3 | B16

Biological target: T5, human Complement Factor D (CFD), purified from human serum (human, UniProt P00746 26-253)
T5 construct: serum purified (CompTech A136); also called serum purified CFD; hCFD-Comptech
Assay: SPR MX96, mAbs amine-coupled, CFD injected

T5 sequence (P00746 26-253): as the sequence (P00746 26-253) above

Row | Kd [nM] | Binder
58 | 0.14 | B17
59 | 4.3 | B18
60 | 4.46 | B19
61 | 0.469 | B20
62 | 8.67 | B21
63 | 3.71 | B22
